In patent publication US11098109B2, “Single-chain variable fragment anti-CD133 antibodies and uses thereof” (REGENTS OF THE UNIVERSITY OF MINNESOTA, priority 2010, dated 2021):

Experiments:
human prominin-1 = molecular target: T1, human prominin-1 (Homo sapiens, UniProt O43490, DEL381-611); test: Soluble scFv ELISA; format: binding; settings: for binding specificity in soluble scFv ELISA: scFv from culture medium and periplasmic space
T1 construct: His-tag (6xHis) (N); made in house
T1 sequence (O43490 with tags, fused parts or gaps DEL381-611): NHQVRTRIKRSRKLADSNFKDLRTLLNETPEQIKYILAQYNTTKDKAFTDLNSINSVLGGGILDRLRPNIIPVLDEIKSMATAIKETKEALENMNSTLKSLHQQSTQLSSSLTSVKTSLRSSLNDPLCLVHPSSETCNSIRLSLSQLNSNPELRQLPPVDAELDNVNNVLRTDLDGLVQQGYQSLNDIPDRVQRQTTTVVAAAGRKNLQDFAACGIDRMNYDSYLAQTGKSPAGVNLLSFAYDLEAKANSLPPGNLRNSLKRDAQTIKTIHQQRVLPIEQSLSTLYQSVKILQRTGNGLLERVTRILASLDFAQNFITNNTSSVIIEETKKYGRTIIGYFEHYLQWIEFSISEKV
Protocol: A single colony was picked from No. 11 DNA transformed Top10F′ E. coli LB-Amp plate in and used to inoculate 25 mL LB medium with 100 μg/mL Amp. The culture was shaken at 37° C. at 250 rpm overnight.
The 25 mL overnight culture was diluted to 500 mL LB containing Amp and was shaken at 37° C. at 250 rpm for about two hours until the OD600 reached 0.5 to 0.7. IPTG was added to a final concentration of 1 mM. The culture was shaken at 30° C. overnight.
The culture was centrifuged at 5.000 g for 20 minutes at 4° C. The supernatant was kept for ELISA.
The cell pellet was completely suspended with 50 mL ice-cold PBS containing protease inhibitors (1 mM PMSF), and was sonicated on ice in short bursts. The power setting was 7 min, 40% power cycle 5 (HD2200 W/MS 73). Triton X-100 was added to the cell lysate to a final concentration of 1% and was mixed gently for 30 minutes at room temperature to aid in solubilization of the fusion protein.
The mixture was centrifuged at 15,000 rpm (Heraeus #3334 rotor) for 30 minutes at 4° C., and the supernatant was taken for ELISA.
The 2 supernatants were diluted (one is from overnight culture supernatant, and the other is from overnight culture pellet) containing soluble mouse scFv with equal volume of 5% milk and were incubated for 10 minutes at room temperature.
100 μL of the diluted scFv was added to each well (coated with human prominin-1), and incubated for one hour at 37° C.
The plate was washed five times.
50 μL per well of diluted secondary antibody conjugate at 1:2.000 (HOURP-conjugated anti-HA, diluted in 5% milk) was added, and incubated for one hour at 37° C.
50 μL/well TMB substrate was added for detection, and incubated for 30 minutes at room temperature.
Soluble scFv ELISA was performed to confirm the binding specificity to the target protein. Here, the expressed scFv was captured by human prominin-1 pre-coated plate, and the binding of the soluble scFv fused with HA tag was detected with anti-HA Ab-HOURP conjugate. […] Supernatant and pellet are test samples. PC means positive control, hybridoma secreted antibody (diluted at 1:2000) was used. BLK means blank.

CD133 = molecular target: T2, CD133 (Homo sapiens, UniProt O43490); test: Western blot screening of hybridoma supernatants on Caco-2 lysates; format: binding; settings: CD133^+ Caco-2 cell lysates
T2 construct: endogenous in cells
T2 sequence (O43490 20-865): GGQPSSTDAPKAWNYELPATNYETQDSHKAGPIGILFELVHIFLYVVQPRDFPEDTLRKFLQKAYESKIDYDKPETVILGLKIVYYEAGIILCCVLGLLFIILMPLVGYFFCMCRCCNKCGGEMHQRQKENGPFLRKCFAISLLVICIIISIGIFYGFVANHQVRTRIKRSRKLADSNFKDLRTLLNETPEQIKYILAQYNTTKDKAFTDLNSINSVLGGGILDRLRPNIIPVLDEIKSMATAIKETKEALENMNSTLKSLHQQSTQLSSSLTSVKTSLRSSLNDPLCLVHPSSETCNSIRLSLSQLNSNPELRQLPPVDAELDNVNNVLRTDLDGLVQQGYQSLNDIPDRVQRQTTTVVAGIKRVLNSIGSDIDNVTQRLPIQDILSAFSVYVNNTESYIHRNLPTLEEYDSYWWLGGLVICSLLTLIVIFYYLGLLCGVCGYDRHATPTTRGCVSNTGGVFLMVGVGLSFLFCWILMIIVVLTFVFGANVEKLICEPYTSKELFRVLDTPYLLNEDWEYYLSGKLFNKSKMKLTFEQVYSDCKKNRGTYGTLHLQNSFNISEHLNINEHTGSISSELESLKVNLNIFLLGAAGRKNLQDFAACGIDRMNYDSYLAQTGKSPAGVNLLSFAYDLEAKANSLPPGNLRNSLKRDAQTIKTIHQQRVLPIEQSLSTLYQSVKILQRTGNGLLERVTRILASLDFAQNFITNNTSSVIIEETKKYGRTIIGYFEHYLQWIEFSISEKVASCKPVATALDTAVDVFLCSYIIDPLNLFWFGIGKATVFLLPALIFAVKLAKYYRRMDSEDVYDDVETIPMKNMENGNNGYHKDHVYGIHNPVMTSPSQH
Protocol: FIG. 2: Analysis of the newly generated CD133 hybridoma. Supematants of hybridoma clones were tested as a primary antibody in western blot (A) and Immunofluorescence (B) assays. Pre-immunized serum (-ve) or post immune anti sera (a.s.) served as controls. For western blot, Caco-2 lysates normalized for protein concentration were loaded onto a SDS-PAGE gel, resolved, blotted onto a nitrocellulose membrane and cut into strips. Each strip was probed with supernatant from the identified hybridoma. Membrane in Lane 1 was probed with a commercially available antibody (ab 19898, Abcam) and served as an additional positive control. For immunofluorescence, Caco-2 cells were fixed and immunostained with the hybridoma supernatants. A commercially available antibody (293C3, Militenyi) was used as additional positive control. Scale bars in the panel represent 200 micrometers. Supernatant of Hybridoma Clone 7 was used in the immunohistochemical analysis of primary glioblastoma and kidney tissue (C).
Caco-2 cells were lysed in RIPA buffer (Thermo Scientific, Waltham. Mass.) and centrifuged at 10,000 rpm and 4° C. to remove debris. The protein concentration of cell lysates was measured using BCA protein assay kit (Thermo Scientific, Waltham, Mass.), with bovine serum albumin as the standard. […]

Molecule	A450, Supernatant (human prominin-1; culture supernatant of Top10F' E. coli)	A450, Pellet (human prominin-1; lysate of culture pellet (periplasmic space))	binding specificity in soluble scFv ELISA (human prominin-1)	binding specificity in soluble scFv ELISA (human prominin-1; listed as Recombinant Clone 11 scFv)	Western blot band with hybridoma supernatant (CD133)	A450, Positive Control (human prominin-1; hybridoma secreted antibody diluted at 1:2000)
No. 11 scFv: soluble scFv of the Hybridoma Clone 7 antibody expressed in E. coli Top10F', SEQ ID NO:58; also used FITC-labeled (protein, optionally FITC-labeled; scFv polypeptide) scFv: MDIVLSQSPAIMSASPGEKVTISCSASSSVSYMYWYQQKPGSSPKPWIYRTSNLASGVPARFSGSGSGTSYSLTISSMEAEDAATYYCQQYHSYPPTFGAGTKLELKSSGGGGSGGGGGGSSRSSLEVKLVESGPELKKPGETVKISCKASGYTFTDYSMHWVNQAPGKGLKWMGWINTETGEPSYADDFKGRFAFSLETSASTAYLQINNLKNEDTATYFCATDYGDYFDYWGQGTTLTVSS	0.9	1.4	confirmed specific for human prominin-1 protein	specific for human CD133		
Hybridoma Clone 7: monoclonal antibody produced by Hybridoma Clone 7 that specifically binds to human CD133 (antibody, V domains shown) VL: DIVLSQSPAIMSASPGEKVTISCSASSSVSYMYWYQQKPGSSPKPWIYRTSNLASGVPARFSGSGSGTSYSLTISSMEAEDAATYYCQQYHSYPPTFGAGTKLELK VH: LEVKLVESGPELKKPGETVKISCKASGYTFTDYSMHWVNQAPGKGLKWMGWINTETGEPSYADDFKGRFAFSLETSASTAYLQINNLKNEDTATYFCATDYGDYFDYWGQGTTLTVSS					distinct band corresponding to the predicted molecular weight of CD133	1.9
